Assay results: patent US12366576B2, “Compositions, assays, and methods for direct modulation of fatty acid metabolism” (Dana-Farber Cancer Institute, Inc., priority 2016, dated 2025)
Bridge positions count the residues as written; N and C are the ends. Square brackets hold non-standard residues; d marks the D form. Ends that are not written are not given here. S5 = C=CCCC[C@](C)(N)C(=O)O

Experiments:
[1] = target: T1, native VLCAD (Mus musculus, UniProt P50544); assay: Biotinylated SAHB pulldown from MEF lysates, anti-VLCAD Western analysis; type: binding; details: for summary of binding properties: binding to VLCAD: pull-downs and ITC
T1 construct: As for native VLCAD from MEF lysates; endogenous in cells; host or cells: SV-40-transformed wild-type mouse embryonic fibroblasts (lysate)
T1 sequence (P50544 42-656): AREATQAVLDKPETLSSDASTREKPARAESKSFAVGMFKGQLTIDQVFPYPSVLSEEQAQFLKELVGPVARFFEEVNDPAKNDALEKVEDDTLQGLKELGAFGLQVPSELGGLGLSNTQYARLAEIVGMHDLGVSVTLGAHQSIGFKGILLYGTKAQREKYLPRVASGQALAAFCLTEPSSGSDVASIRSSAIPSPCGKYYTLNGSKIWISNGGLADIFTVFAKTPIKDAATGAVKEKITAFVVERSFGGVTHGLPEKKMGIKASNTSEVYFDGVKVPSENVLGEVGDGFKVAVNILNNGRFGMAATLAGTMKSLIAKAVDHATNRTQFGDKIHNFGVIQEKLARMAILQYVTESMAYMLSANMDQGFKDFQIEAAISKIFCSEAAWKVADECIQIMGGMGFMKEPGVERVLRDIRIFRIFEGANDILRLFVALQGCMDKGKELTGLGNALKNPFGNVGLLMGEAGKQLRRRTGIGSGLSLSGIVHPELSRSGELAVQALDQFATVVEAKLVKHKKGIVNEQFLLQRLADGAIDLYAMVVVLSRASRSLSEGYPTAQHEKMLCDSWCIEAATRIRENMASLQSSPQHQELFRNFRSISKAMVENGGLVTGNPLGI
From the text: To validate the MS result, the pulldowns were repeated and eluates run on a gel for anti-VLCAD Western blot analysis. […] All peptides faithfully recapitulated native BH3-binding propensities for endogenous MCL-1 protein (FIG. 8). The eluates were then probed for the other members of the acyl-CoA dehydrogenase family that manifest shorter fatty acid substrate specificities. MCL-1 SAHBD was able to pull down VLCAD, but not MCAD or SCAD (FIG. 9). Because the traditional MCL-1 staple location differs from that of the BIM, BID, and BAD SAHBs, it was important to confirm that the observed VLCAD binding specificity was due to BH3 sequence selectivity, not staple position. A BIM SAHB with the traditional MCL-1 staple (BIM SAHBF), and a MCL-1 stapled peptide with the traditional BIM staple (MCL-1 SAHBA), were generated. […] To confirm that the selective interaction between MCL-1 SAHBD and VLCAD is direct, recombinant VLCAD was generated and purified by size exclusion chromatography (FIGS. 11 and 12).
The binding determinants for the MCL-1 BH3/VLCAD interaction were investigated by generating a series of biotinylated MCL-1 SAHBD alanine point mutants (FIG. 18A) and performing streptavidin pull-downs from MEF lysates, followed by VLCAD and MCL-1 western analysis of the resulting eluates. […] Native alanines and residues not mutated are colored white. The dotted semicircles highlight the distinctive MCL-1 BH3 binding interfaces for VLCAD versus MCL-1 engagement, as defined by the differential sensitivities to alanine mutagenesis.
(§1) Wild-type MEFs were trypsinized, washed once with cold PBS, and lysed on ice with NP-40 lysis buffer (50 mM Tris, pH 7.4, 150 mM NaCl, 0.5% (v/v) NP-40, complete protease inhibitor pellet (Roche)) using 1 ml of lysis buffer for every 10 million cells lysed. Cellular debris was pelleted at 14,000 g for 10 min at 4° C., and the supernatant was quantified using the BCA Protein Assay Kit (Thermo Fisher Scientific). 2 mg of lysate per pulldown were then exposed to 50 μL of pre-equilibrated High Capacity Streptavidin Agarose beads (Thermo Fisher Scientific). The pre-cleared lysates were then incubated with 15 nmol biotinylated SAHBs (or vehicle, 1.5% (v/v) DMSO) overnight at 4° C., followed by addition of 50 μL of pre-equilibrated High Capacity Streptavidin Agarose beads for 2 hours at 4° C. The beads were then pelleted and washed with NP-40 lysis buffer three times before eluting the protein sample from the beads by heating at 70° C. for 10 min in SDS loading buffer. Samples were then subjected to electrophoresis and either Western analysis or Coomassie stain (SimplyBlue Safe Stain, Thermo Fisher Scientific). The antibodies used for Western analysis were the following: MCL-1 (Rockland 600-401-394; 1:1000 in 3% BSA), VLCAD (Thermo Fisher Scientific PA5-29959; 1:1000 in 1% milk+0.1% Tween-20), MCAD (Thermo Fisher Scientific PA5-27201; 1:1000 in 3% BSA), and SCAD (Abcam ab154823; 1:1000 in 3% BSA). Coomassie stained gels were then processed for proteomics analysis (see below). Biotinylated SAHB pulldowns of recombinant protein were performed as above incubating 5 nmol of SAHB with 10 pmol of rVLCAD in 500 μL total volume. Densitometry analyses were performed using ImageJ software.

[2] = system: endogenous MCL-1; assay: Biotinylated SAHB pulldown from MEF lysates, anti-MCL-1 Western analysis; type: binding, mouse; details: summary, pull-downs
Sequence of endogenous MCL-1 (P97287 152-308 limits assumed): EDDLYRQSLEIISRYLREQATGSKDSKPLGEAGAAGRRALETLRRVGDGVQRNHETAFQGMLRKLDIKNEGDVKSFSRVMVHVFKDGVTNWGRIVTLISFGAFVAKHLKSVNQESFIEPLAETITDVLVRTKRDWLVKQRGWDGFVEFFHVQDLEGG
Protocol: An exploratory proteomics analysis was conducted to identify proteins that interact with the MCL-1 BH3 domain helix. An extensive library of MCL-1 stapled BH3 peptides (FIG. 2) was generated to both identify novel protein interactors by mass spectrometry and then deploy the stapled peptide constructs as novel probes to dissect and pharmacologically modulate the identified protein interactors and associated signaling pathways. As an example, an N-terminally biotinylated stapled peptide designed based on the sequence of MCL-1's BH3 domain (Btn-MCL-1 SAHBD), or vehicle, was incubated with wild-type mouse embryonic fibroblast (MEF) lysates, followed by high stringency streptavidin capture. To validate the proteomics workflow and ensure that Btn-MCL-1 SAHBD could, in fact, engage protein interactors in a lysate, eluates were first run on a gel for anti-MCL-1 Western analysis. […] For mass spectrometry (MS) analysis, eluates were run on a reducing/denaturing gel followed by Coomassie staining (FIG. 4) and in-gel digestion was performed before injection on the instrument.
The binding determinants for the MCL-1 BH3/VLCAD interaction were investigated by generating a series of biotinylated MCL-1 SAHBD alanine point mutants (FIG. 18A) and performing streptavidin pull-downs from MEF lysates, followed by VLCAD and MCL-1 western analysis of the resulting eluates. […] Native alanines and residues not mutated are colored white.
as §1, with “The pre-cleared lysates were then incubated with 15 nmol biotinylated SAHBs (or vehicle, 1.5% (v/v) DMSO) overnight at 4° C., followed by addition of 50 μL of pre-equilibrated High Capacity Streptavidin Agarose beads for 2 hours at 4° C.” left out, “The antibodies used for Western analysis were the following: MCL-1 (Rockland 600-401-394; 1:1000 in 3% BSA), VLCAD (Thermo Fisher Scientific PA5-29959; 1:1000 in 1% milk+0.1% Tween-20), MCAD (Thermo Fisher Scientific PA5-27201; 1:1000 in 3% BSA), and SCAD (Abcam ab154823; 1:1000 in 3% BSA).” left out

| Substance | effect of alanine mutation on biotinylated MCL-1 SAHBD interaction with VLCAD ([1]; pull-downs from MEF lysates) | summary of binding properties: binding to VLCAD [1] | summary of binding properties: binding to MCL-1 [2] |
| --- | --- | --- | --- |
| L210A: biotinylated MCL-1 SAHBD alanine point mutant L210A (RKAAETLRRVGDGV[S5]RNH[S5]TAF; staple 15-19; also: biotinylated, place not given here) | uniquely disruptive | weakly or not | Binds |
| G219A: biotinylated MCL-1 SAHBD alanine point mutant G219A (RKALETLRRVGDAV[S5]RNH[S5]TAF; staple 15-19; also: biotinylated, place not given here) | – | Binds | Binds |
| K208A: biotinylated MCL-1 SAHBD alanine point mutant K208A (RAALETLRRVGDGV[S5]RNH[S5]TAF; staple 15-19; also: biotinylated, place not given here) | – | enhanced binding | diminished binding |
| T212A: biotinylated MCL-1 SAHBD alanine point mutant T212A (RKALEALRRVGDGV[S5]RNH[S5]TAF; staple 15-19; also: biotinylated, place not given here) | – | Binds | weakly or not |
| H224A: biotinylated MCL-1 SAHBD alanine point mutant H224A (RKALETLRRVGDGV[S5]RNA[S5]TAF; staple 15-19; also: biotinylated, place not given here) | – | Does not bind | Does not bind |
| G217A: biotinylated MCL-1 SAHBD alanine point mutant G217A (RKALETLRRVADGV[S5]RNH[S5]TAF; staple 15-19; also: biotinylated, place not given here) | – | Binds | weakly or not |
| V216A: biotinylated MCL-1 SAHBD alanine point mutant V216A (RKALETLRRAGDGV[S5]RNH[S5]TAF; staple 15-19; also: biotinylated, place not given here) | – | Binds | weakly or not |
| T226A: biotinylated MCL-1 SAHBD alanine point mutant T226A (RKALETLRRVGDGV[S5]RNH[S5]AAF; staple 15-19; also: biotinylated, place not given here) | – | diminished binding | diminished binding |
| E211A: biotinylated MCL-1 SAHBD alanine point mutant E211A (RKALATLRRVGDGV[S5]RNH[S5]TAF; staple 15-19; also: biotinylated, place not given here) | – | Binds | Binds |
